Measured values: US20250313627A1 (FUSE BIOTHERAPEUTICS, published 2025)

Columns and labels:
[1] = target: T1, human ROR1 (Receptor Tyrosine Kinase-Like Orphan Receptor 1) on the cell surface (human, UniProt Q01973 30-937); assay: flow cytometry, LS174T cells expressing human ROR1 (low density)
T1 construct: whole, on cells; engineered into B16-F10 (high density) and LS174T (low density) cells; also called B16-F10-ROR1-H; LS174T-ROR1-L
Experimental: (§1) As shown in the tables below, mouse B16-F10 melanoma (Tables 9A-9F) or LS174T human colorectal adenocarcinoma (Tables 9G-9H) cells genetically engineered to express human ROR1 at high and low densities, respectively, were stained for flow cytometric analysis with 100 nM of humanized variants of the ROR1 specific VHHs, 5A1 or 2A11 in either a VHH-Fc format or the Ac13 format shown in FIG. 1. Cells were analyzed on a flow cytometer after the primary test article was fluorescently tagged with a goat anti human IgG-Fc specific PE secondary antibody. The positive control used was PE conjugated anti-human ROR1 clone 2A2. Negative controls included a PE labeled mouse IgG Ab, the secondary antibody only, the combination of a Hen Egg Lysozyme (HEL) specific antibody plus goat anti human IgG-Fc specific PE and Fluorescence Minus One (FMO). Other controls included the non-humanized version of 5A1-Fc (FUSE179), 2A11-Fc (FUSE112) and 5A1-Ac13 (FUSE488). Humanized variants were generated using computational design (FUSE489, FUSE497-498, FUSE563, FUSE569-570, and BI-HU9-VHH11-33), a yeast display library in which mutations were inserted into the Vernier zone residues of human framework indicated in GenBank accession number M99660 (FUSE524-525, FUSE589, FUSE597-598, FUSE537, FUSE661-662, BI-HU9-HK and BI-HU9-HK-1), and a second yeast display library in which mutations were inserted into the Vernier zone residues of human framework indicated in GenBank accession number AWH66715 and amino acid position 103 within CDR3 (FUSE559, FUSE590-596, BI-HU9-VH9-1, FUSE654-655 and FUSE661-662. Affinity matured variants of FUSE559 were also generated using computational design (F22158101-21; Table 9H).

[2] = target: T1, human ROR1 (Receptor Tyrosine …); assay: flow cytometry, B16-F10 cells expressing human ROR1 (high density)
Experimental: as §1

[3] = target: T1, human ROR1 (Receptor Tyrosine …); assay: as above; remark: listed apart in the source
Experimental: as §1

[4] = target: T1, human ROR1 (Receptor Tyrosine …); assay: as above; remark: listed apart in the source
Experimental: as §1

[5] = target: T2, recombinant His tagged human ROR1 (human, UniProt Q01973 30-403, limits assumed); assay: BLI (Octet), VHH-Fc loaded on the biosensor, His tagged ROR1 in solution
T2 construct: Analyte in the BLI assay; also called Human ROR1-His; recombinant ROR1

[6] = target: T2, recombinant His tagged human ROR1; assay: BLI (Octet), FUSE protein on the tip, His tagged ROR1 in solution; 2A11 parental VHH-Fc
Experimental: (§2) As shown in FIGS. 5A-5D, the binding affinities (KD) of TCEs for ROR1 were assessed. We examined the magnitude by which several TCEs and mutants thereof bind to recombinant ROR1. Kinetic binding graphs were generated via Bio-Layer Interferometry (BLI) using an Octet system. For each TCE, the biosensor tips were coated with FUSE proteins at 15 μg/ml and probed with either recombinant His tagged ROR1 at concentrations ranging from 100 pM to 10 μM. […] The binding affinity (KD), on rate (k-on) and off rate (k-dis), are summarized for ROR1 in FIG. 5D.
(§3) We further examined the impact of mutating the cysteine residues located in CDR1 and CDR3 of 2A11 VHH and 5A1 VHH.

[7] = target: T2, recombinant His tagged human ROR1; assay: BLI (Octet), VHH-Fc loaded on the biosensor, His tagged ROR1 in solution; column 'kdis(1/s)'
[8] = target: T1, human ROR1 (Receptor Tyrosine …); assay: flow cytometry, LS174T cells expressing human ROR1 (low density); remark: listed apart in the source
Experimental: as §1

[9] = target: T1, human ROR1 (Receptor Tyrosine …); assay: flow cytometry, B16-F10 cells expressing human ROR1 (high density); remark: listed apart in the source
[10] = target: T1, human ROR1 (Receptor Tyrosine …); assay: as above; remark: listed apart in the source
Experimental: as §1

[11] = target: T2, recombinant His tagged human ROR1; assay: BLI (Octet), VHH-Fc loaded on the biosensor, His tagged ROR1 in solution; remark: listed apart in the source
[12] = target: T2, recombinant His tagged human ROR1; assay: BLI (Octet), FUSE protein on the tip, His tagged ROR1 in solution; 5A1 parental VHH-Fc
Experimental: as §2, §3

[13] = target: T2, recombinant His tagged human ROR1; assay: BLI (Octet), VHH-Fc loaded on the biosensor, His tagged ROR1 in solution; column 'kdis(1/s)'; remark: listed apart in the source
[14] = target: T1, human ROR1 (Receptor Tyrosine …); assay: flow cytometry on B16-F10 cells engineered to express human ROR1, secondary antibody to the IgG1 Fc
Experimental: As shown in FIG. 15 the apparent binding affinity (EC50-binding) of the ROR1 specific VHH-Fc incorporating either the non humanized VHH clone 5A1 (FUSE179; black circle), the humanized clone 5A1-FA9-HK1 (FUSE559; black square) or the humanized clone 5A1-HK1 (FUSE524; black triangle) was calculated. Shown is a non-linear x-y plot of binding to B16-F10 cell engineered to express human ROR1 relative to the concentration of test article used for staining. A Hen Egg Lysozyme (HEL)-specific antibody was used as the negative isotype control. Binding was measured via flow cytometry using a fluorescently labeled secondary antibody specific for the Fc domain of IgG1. A summary table of EC50s and maximum MFI is shown beneath under the graph.

[15] = target: T2, recombinant His tagged human ROR1; assay: SPR (Biacore 8K), recombinant human ROR1 amine-coupled on a CM5 chip (4400 RU), analyte 200nM, 1:1 binding fit [table below it]
Experimental: (§4) Protein test article binding to recombinant human ROR1 (Acro Biosystems, RO1-H522y) was detected on a BIAcore 8K (Cytiva) biosensor system using an SPR assay. Briefly, a carboxymethylated CM5 sensor chip was activated with 1:1 mixture of 0.4 M N-ethyl-N-(3-dimethylaminopropyl) carbodiimide and 0.1 M′ N-hydroxysuccinimide. Recombinant human ROR1 in 10 mM NaOAc (pH5) was then immobilized on the sensor chip by amine-coupling according to the manufacturer's instructions to yield the stable RU of 4400. Unreacted sites were blocked with 1M ethanolamine/HCl (pH 8). Control flow cells (blank) were activated and blocked in the absence of ROR1. Flow cells were routinely equilibrated with running buffer (PBS, 0.005% surfactant P20). Test article proteins used for assessment of binding to recombinant human ROR1 binding were diluted in HBS-EP running buffer and injected into the sensor chip at different concentrations. […] Data from duplicate assays were modeled for binding equilibrium and dot plots for 200 nM of protein test article was calculated. Association constant (ka), dissociation constant (kd) and binding affinity (KD=kd/ka) were generated from integrated software in the BIAcore 8K system.
(§5) Shown are sensorgrams of surface plasmon resonance (SPR) data generated via Biacore analysis. A summary table of binding affinity (KD), on rate (k-a) and off rate (kd) is shown below FIG. 16B.

[16] = target: T2, recombinant His tagged human ROR1; assay: SPR (Biacore 8K), recombinant human ROR1 amine-coupled on a CM5 chip (4400 RU), analyte 200nM, 1:1 binding fit; column 'kd (1/s)' [table below it]
Experimental: as §4, §5

[17] = target: T2, recombinant His tagged human ROR1; assay: SPR (Biacore 8K), recombinant human ROR1 amine-coupled on a CM5 chip (4400 RU), analyte 200nM, 1:1 binding fit; column '1:1 binding ka (1/Ms)' [table below it]
Experimental: as §4, §5

[18] = target: T1, human ROR1 (Receptor Tyrosine …); assay: cell-based or functional assay
human CD3 on T cells = target: T3, human CD3 on T cells (human, UniProt P07766 23-207; P09693 23-182; P04234 22-171; P20963 22-164); assay: flow cytometry on CD3+ Jurkat NFAT Lucia cells, secondary antibody to the IgG1 Fc
T3 construct: whole, on cells; also called human CD3 on Jurkat T cells; human CD3 on T cells isolated from human PBMC

[19] = target: T1, human ROR1 (Receptor Tyrosine …); assay: flow cytometry on ROR1+ MDA-MB-231 cells, secondary antibody to the IgG1 Fc; table row 'Binding EC50 (nM)', the graph's axis reads 'Concentration (pM)'

T2 sequence (Q01973 30-403 limits assumed): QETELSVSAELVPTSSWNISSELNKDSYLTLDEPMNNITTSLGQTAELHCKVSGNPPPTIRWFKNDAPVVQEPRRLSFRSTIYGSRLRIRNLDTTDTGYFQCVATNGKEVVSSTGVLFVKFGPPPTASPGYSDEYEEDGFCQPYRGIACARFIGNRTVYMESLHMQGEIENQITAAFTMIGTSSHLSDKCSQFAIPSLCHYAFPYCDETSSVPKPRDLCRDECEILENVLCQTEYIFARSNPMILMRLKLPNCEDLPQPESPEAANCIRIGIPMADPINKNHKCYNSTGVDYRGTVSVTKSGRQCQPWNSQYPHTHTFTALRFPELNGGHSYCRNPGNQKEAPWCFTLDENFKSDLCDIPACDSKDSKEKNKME
T1 sequence (Q01973 30-937): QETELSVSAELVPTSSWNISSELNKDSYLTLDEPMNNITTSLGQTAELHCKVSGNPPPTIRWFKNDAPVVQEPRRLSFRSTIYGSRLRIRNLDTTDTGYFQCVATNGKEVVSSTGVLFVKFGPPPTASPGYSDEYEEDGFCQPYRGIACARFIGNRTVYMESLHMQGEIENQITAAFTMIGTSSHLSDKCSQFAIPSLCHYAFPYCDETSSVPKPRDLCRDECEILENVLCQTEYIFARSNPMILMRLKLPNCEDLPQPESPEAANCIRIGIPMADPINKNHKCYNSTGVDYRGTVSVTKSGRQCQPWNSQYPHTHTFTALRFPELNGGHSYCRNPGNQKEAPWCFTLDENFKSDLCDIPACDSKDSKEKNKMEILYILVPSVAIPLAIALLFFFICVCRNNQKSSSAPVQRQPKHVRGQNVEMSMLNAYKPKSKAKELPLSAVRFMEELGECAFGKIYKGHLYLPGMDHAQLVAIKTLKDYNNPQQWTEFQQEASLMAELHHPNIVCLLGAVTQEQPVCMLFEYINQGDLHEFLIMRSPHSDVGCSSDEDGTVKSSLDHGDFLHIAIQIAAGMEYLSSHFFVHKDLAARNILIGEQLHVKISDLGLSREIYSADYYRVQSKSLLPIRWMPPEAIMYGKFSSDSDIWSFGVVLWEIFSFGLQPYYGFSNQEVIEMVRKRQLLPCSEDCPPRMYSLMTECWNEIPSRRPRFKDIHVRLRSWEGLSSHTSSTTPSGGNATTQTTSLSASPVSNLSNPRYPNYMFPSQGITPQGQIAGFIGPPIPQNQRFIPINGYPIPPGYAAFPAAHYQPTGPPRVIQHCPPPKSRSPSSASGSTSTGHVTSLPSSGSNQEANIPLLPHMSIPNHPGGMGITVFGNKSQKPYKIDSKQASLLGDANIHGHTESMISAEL
T3 sequence (P07766 23-207, chain 1 of 4): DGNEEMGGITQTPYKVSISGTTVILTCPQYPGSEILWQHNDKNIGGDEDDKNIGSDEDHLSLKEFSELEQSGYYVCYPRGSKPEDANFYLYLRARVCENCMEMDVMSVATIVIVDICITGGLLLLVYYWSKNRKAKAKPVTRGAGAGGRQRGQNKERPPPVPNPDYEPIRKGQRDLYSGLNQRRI
T3 sequence (P09693 23-182, chain 2 of 4): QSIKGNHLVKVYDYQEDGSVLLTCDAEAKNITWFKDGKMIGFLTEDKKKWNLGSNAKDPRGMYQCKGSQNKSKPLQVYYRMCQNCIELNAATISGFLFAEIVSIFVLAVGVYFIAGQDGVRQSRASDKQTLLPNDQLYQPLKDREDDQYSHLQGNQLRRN
T3 sequence (P04234 22-171, chain 3 of 4): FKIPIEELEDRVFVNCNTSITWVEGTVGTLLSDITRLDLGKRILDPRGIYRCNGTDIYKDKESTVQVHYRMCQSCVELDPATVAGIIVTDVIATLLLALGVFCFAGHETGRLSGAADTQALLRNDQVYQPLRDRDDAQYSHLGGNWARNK
T3 sequence (P20963 22-164, chain 4 of 4): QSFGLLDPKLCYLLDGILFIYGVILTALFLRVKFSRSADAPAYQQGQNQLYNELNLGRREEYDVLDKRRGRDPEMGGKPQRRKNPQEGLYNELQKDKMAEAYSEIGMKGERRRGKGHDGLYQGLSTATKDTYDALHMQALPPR

B1: FUSE-112 (2A11 VHH-human-Fc fusion protein) (Fc fusion)
chain: QVQLQESGGGSVPAGGSLRLSCAASGSTYSANCMGWFRQAPGKEREEVASMSIRSGRTYYSDSVKGRFTISQDGSKNTLYLQLNSLKAEDTALYYCAAAYGGSRCVYNYRGQGTQVTVSS
notes: VHH-human-Fc fusion; non-humanized 2A11; also called 2A11-Fc; not shown: human Fc
Work on B1 yielded an MFI [1] of 4340, an MFI [2] of 11900 and an MFI [3] of 7840. For the same binder, the MFI [4] was 208000, the Kd [5] was 42.4 nM and the kon [5] was 43100 M⁻¹ s⁻¹. It also gave a Kd [6] of roughly 4 nM and a koff [7] of 0.00183 s⁻¹.

B2: FUSE-179 (5A1 VHH-human-Fc fusion protein) (Fc fusion)
chain: QVQLQESGGGSVQAGGSLKLSCTASGYTNRLKCMGWFRQAPGKEREEIATISTGTGNTYYADSVKGRFTFSQDKVKNTVYLQMNTLKPDDTGMYYCAADVRPDGTTCHYNSGGQGTQVTVSS
notes: VHH-human-Fc fusion; non-humanized 5A1; not shown: human Fc
With B2 the MFI [1] was 836, the MFI [8] was 3060 and the MFI [9] was 4220. The MFI [10] was 3730, the MFI [2] was 8480 and the MFI [3] was 4480. The MFI [4] was 93800, the Kd [11] was 36 nM and the kon [11] was 48200 M⁻¹ s⁻¹. For the same binder, the Kd [12] was roughly 4 nM, the koff [13] was 0.00174 s⁻¹ and the EC50 [14] was 2.04 nM. The “Max MFI” value [14] was 4900 MFI, the Kd [15] was 7.38 nM and the koff [16] was 0.00106 s⁻¹. It also gave a kon [17] of 144000 M⁻¹ s⁻¹.

B3: FUSE608 (humanized CD3 clone 1F3.3 x humanized clone 5A1-FA9-HK1) (bispecific antibody)
heavy: EVQLVESGGGLVQPGGSLRLSCAASGFTFSTYAMNWVRQAPGKGLEWVARIRSKYNNYATYYADSVKDRFTISRDDSKNTLYLQMNSLRAEDTAVYYCARHGNFGNSYVSWFAYWGQGTMVTVSSASTKGPSVFPLAPSSKSTSGGTAALGCLVKDYFPEPVTVSWNSGALTSGVHTFPAVLQSSGLYSLSSVVTVPSSSLGTQTYICNVNHKPSNTKVDKKVEPKSCDKTHTCPPCPAPEAAGGPSVFLFPPKPKDTLMISRTPEVTCVVVDVSHEDPEVKFNWYVDGVEVHNAKTKPREEQYNSTYRVVSVLTVLHQDWLNGKEYKCKVSNKALPAPIEKTISKAKGQPREPQVYTLPPSREEMTKNQVSLSCAVKGFYPSDIAVEWESNGQPENNYKTTPPVLDSDGSFFLVSKLTVDKSRWQQGNVFSCSVMHEALHNRFTQKSLSLSPGK
VHH-Fc: EVQLLESGGGLVQPGGSLRLSCTASGYTNRLKCMGWFRQAPGKEREEIASISTGTGNTYYADSVKGRFTISRDKSRNTLYLQMNTLRAEDTAVYYCAADVRPHGTTCHYNSRGQGTQVTVSSEPKSSDKTHTCPPCPAPEAAGGPSVFLFPPKPKDTLMISRTPEVTCVVVDVSHEDPEVKFNWYVDGVEVHNAKTKPREEQYNSTYRVVSVLTVLHQDWLNGKEYKCKVSNKALPAPIEKTISKAKGQPREPQVYTLPPSREEMTKNQVSLWCLVKGFYPSDIAVEWESNGQPENNYKTTPPVLDSDGSFFLYSKLTVDKSRWQQGNVFSCSVMHEALHNHYTQKSLSLSPGK
light: QAVVTQEPSLTVSPGGTVTLTCRSSTGAVTTSNYANWVQQKPGQAPRGLIGGTNKRAPGTPARFSGSLLGGKAALTLSGVQPEDEAEYYCALWYSNLWVFGGGTKLTVLGQPKAAPSVTLFPPSSEELQANKATLVCLISDFYPGAVTVAWKADSSPVKAGVETTTPSKQSNNKYAASSYLSLTPEQWKSHRSYSCQVTHEGSTVEKTVAPTECSGGGGSGGGGSGGGGSGGGGSEVQLLESGGGLVQPGGSLRLSCTASGYTNRLKCMGWFRQAPGKEREEIASISTGTGNTYYADSVKGRFTISRDKSRNTLYLQMNTLRAEDTAVYYCAADVRPHGTTCHYNSRGQGTQVTVSS
In the case of B3, the “fold decrease in T cell mediated IFNγ release with ROR1+ MDA-MB-231, potency against FUSE399” value [18] is reported as roughly 25 fold, the EC50 (human CD3 on T cells) is reported as 8.18 nM and the EC50 [19] is reported as 2.9 nM.
